# Data from article PMC4441819 (Cell, 2015).
# T1: HA A/Solomon Islands/03/2006 globular head (Influenza A virus A/Solomon …)
# T1 chain: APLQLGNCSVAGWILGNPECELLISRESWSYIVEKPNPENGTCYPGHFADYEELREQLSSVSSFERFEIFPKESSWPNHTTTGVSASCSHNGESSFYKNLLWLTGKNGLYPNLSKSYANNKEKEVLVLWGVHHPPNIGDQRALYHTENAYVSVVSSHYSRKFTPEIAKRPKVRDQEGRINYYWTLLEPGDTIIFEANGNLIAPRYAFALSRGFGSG
# Target: T1, HA A/Solomon Islands/03/2006 globular …
# Experiment: BLI
binder,measurement,value
"CH67 Fab, critical dipeptide VD changed to ID (Fab, V domains shown) VH: QVQLVQSGAEVRKPGASVKVSCKASGYTFTDNYIHWVRQAPGQGLEWMGWIHPNSGATKYAQKFEGWVTMTRDTSISTVYMELSRSRSDDTAVYYCARAGLEPRSIDYYFYGLDVWGQGTAVTVSS VL: QSALTQPPSVSVAPGQTATITCGGNNIGRKRVDWFQQKPGQAPVLVVYEDSDRPSGIPERFSDSNSGTTATLTISRVEAGDEADYYCQVWDSDSDHVVFGGGTKLTVL",Kd,1790 ± 120 nM
same,kon,42400 M⁻¹ s⁻¹
